Assay results from publication PMC9798557 (2022).

Legend:
[1] = target: T1, CD38 on CD38-positive cell lines (human, UniProt P28907 1-300); assay: FACS; H929 cells
[2] = target: T1, CD38 on CD38-positive cell lines; assay: FACS; Ramos cells
[3] = target: T1, CD38 on CD38-positive cell lines; assay: FACS; MM1S cells
[4] = target: T1, CD38 on CD38-positive cell lines; assay: FACS; MOLP-8 cells
[5] = target: T1, CD38 on CD38-positive cell lines; assay: FACS; Daudi cells
[6] = target: T1, CD38 on CD38-positive cell lines; assay: FACS; RPMI 8226 cells
[7] = target: T1, CD38 on CD38-positive cell lines; assay: FACS; SU-DHL-6 cells
[8] = target: T1, CD38 on CD38-positive cell lines; assay: FACS; Raji cells

- EC50 [1]: 0.767 µg/mL
- EC50 [2]: 0.74 µg/mL
- EC50 [3]: 0.581 µg/mL
- EC50 [4]: 0.28 µg/mL
- EC50 [5]: 0.289 µg/mL
- EC50 [6]: 1.19 µg/mL
- EC50 [7]: 0.548 µg/mL
- EC50 [8]: 0.321 µg/mL
B1: daratumumab (antibody, V domains shown)
VH: EVQLLESGGGLVQPGGSLRLSCAVSGFTFNSFAMSWVRQAPGKGLEWVSAISGSGGGTYYADSVKGRFTISRDNSKNTLYLQMNSLRAEDTAVYFCAKDKILWFGEPVFDYWGQGTLVTVSS
VL: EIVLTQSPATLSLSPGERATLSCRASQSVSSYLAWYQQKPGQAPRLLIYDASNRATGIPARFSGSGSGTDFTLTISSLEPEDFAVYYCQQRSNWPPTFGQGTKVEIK
